Assay results taken from patent US8338155B2, “Modified mevalonate kinase with reduced feedback inhibition” (DSM IP Assets B.V., priority 2004, dated 2012).

Columns and labels:
[1] = system: Saccharomyces cerevisiae mevalonate kinase; experiment: Inhibition of mevalonate kinase activity by the feedback inhibitor FPP: feedback resistance; assay type: biochemical; settings: 1 μM FPP; % resistance=100·((d/c)−(b/a))/(1−(b/a)) relative to wild-type
Procedure: “Feedback resistance” as used herein may be any increase in resistance to “feedback inhibition” (as defined above). Feedback resistance can be analyzed in different ways known to those skilled in the art. An appropriate example of such an analysis is shortly described herein: mevalonate kinase activity is measured in an activity assay at non-saturating concentrations of for instance ATP (or of another phosphate donor) and mevalonate (or mevalonate analogue), i.e., at for instance ATP (or phosphate donor) and mevalonate (or mevalonate analogue) concentrations around which the reaction rate is sensitive to changes of these substrate concentrations, e.g., at concentrations around the respective Km values of the enzyme under investigation for these substrates. The activities of both wild-type mevalonate kinase and of a variant/mutant of this enzyme are measured under otherwise identical conditions both in the absence and presence of a relevant concentration of a feedback inhibitor, i.e., at a concentration of feedback inhibitor affording significant inhibition of the wild-type mevalonate kinase. If the extent of inhibition (e.g., % inhibition) by the feedback inhibitor is lower for the mutant than for the wild-type enzyme, then the mutant is feedback resistant in the context of the present patent application. Once a feedback resistant variant/mutant has been identified, the same procedure as described above may be applied to identify further improved mutants, i.e., mutants that are even more feedback resistant. Feedback resistance (%) is calculated as follows: if (a) and (b) are the measured mevalonate kinase activities of the wild-type enzyme in the absence and presence, respectively, of the feedback inhibitor (e.g., FPP), and if (c) and (d) are the measured mevalonate kinase activities of the mutant enzyme in the absence and presence, respectively, of the same feedback inhibitor, then % feedback resistance is: % resistance=100·((d/c)−(b/a))/(1−(b/a))
(§1) For preparing mevalonate as substrate, 130 mg of DL-mevalonate lactone (FLUKA Chemie AG, Buchs, Switzerland) were dissolved in 5.5 ml of 0.2 M KOH and incubated for 15 min at 50° C. The solution was then adjusted to pH 7.0 by addition of 0.1 M HCl at room temperature (RT). Except if stated otherwise, the assay mixture consisted of 100 mM K2BPO/KH2PO4 (pH 7.0), 1 mM ATP, 2 mM MgCl2, 1 mM mevalonate, 0.5 mM phosphoenolpyruvate (PEP), 0.32 mM NADH, 20 U/ml pyruvate kinase and 27 U/ml lactate dehydrogenase (Sigma-Aldrich, St. Louis, Mo., USA). Inhibition was tested by adding 1 μM FPP.
(§2) Purification of His6-tagged mevalonate kinase and of His6-tagged mevalonate kinase mutant enzymes was done with Ni-NTA chromatography using the QIAexpress system/reagents of Qiagen. Upon addition of purified (His6-tagged) mevalonate kinase, enzymatic reaction reflected by consumption of NADH was followed by photometric measurement at 340 nm. One unit (1 U) of mevalonate kinase activity catalyzes the phosphorylation of 1 μmol of mevalonate per min.
(§3) Preparation of Mevalonate and Activity Measurement was Exactly Performed as Described in Example 1. 1 μM FPP was used for inhibition assays performed with the Saccharomyces cerevisiae mevalonate kinase wild-type enzyme and its mutants.
Feedback resistance (%) was calculated according to the following formula: % resistance=100·((d/c)−(b/a))/(1−(b/a)) wherein (a) and (b) refer to the measured mevalonate kinase activities of the wild-type enzyme in the absence and presence, respectively, and (c) and (d) refer to the measured mevalonate kinase activities of the mutant enzyme in the absence and presence, respectively, of FPP. The results are shown in Tab. 1, wherein WT represents the non-mutated mevalonate kinase containing a His6-tag (SEQ ID NO:3).

[2] = system: Saccharomyces cerevisiae mevalonate kinase; experiment: Mevalonate kinase activity assay (NADH consumption, photometric at 340 nm): specific activity; assay type: biochemical; settings: purified His6-tagged enzyme; WT = non-mutated His6-tagged mevalonate kinase
Excerpt: Methods for measuring specific activity are known to the person skilled in the art. The specific activity may for instance be determined via measuring the consumption of NADH. Suitable conditions for such measurement may be those as e.g. outlined in Example 1 except that, typically, saturating substrate concentrations are used or, in the case of enzyme inhibition at high substrate concentrations, at substrate concentrations that provide maximal activity under the particular experimental conditions.
as §1, §2, §3

B1: F59S: Saccharomyces cerevisiae mevalonate kinase mutant with substitution F59S (protein, listed as Saccharomyces cerevisiae)
chain: MSLPFLTSAPGKVIIFGEHSAVYNKPAVAASVSALRTYLLISESSAPDTIELDFPDISSNHKWSINDFNAITEDQVNSQKLAKAQQATDGLSQELVSLLDPLLAQLSESFHYHAAFCFLYMFVCLCPHAKNIKFSLKSTLPIGAGLGSSASISVSLALAMAYLGGLIGSNDLEKLSENDKHIVNQWAFIGEKCIHGTPSGIDNAVATYGNALLFEKDSHNGTINTNNFKFLDDFPAIPMILTYTRIPRSTKDLVARVRVLVTEKFPEVMKPILDAMGECALQGLEIMTKLSKCKGTDDEAVETNNELYEQLLELIRINHGLLVSIGVSHPGLELIKNLSDDLRIGSTKLTGAGGGGCSLTLLRRDITQEQIDSFKKKLQDDFSYETFETDLGGTGCCLLSAKNLNKDLKIKSLVFQLFENKTTTKQQIDDLLLPGNTNLPWTS
Feedback resistance (%) [1]: 56% | Specific activity (% of wild-type) [2]: 31 % of wild-type

B2: H111N, K375N: Saccharomyces cerevisiae mevalonate kinase mutant with substitutions H111N and K375N (protein, listed as Saccharomyces cerevisiae)
chain: MSLPFLTSAPGKVIIFGEHSAVYNKPAVAASVSALRTYLLISESSAPDTIELDFPDISFNHKWSINDFNAITEDQVNSQKLAKAQQATDGLSQELVSLLDPLLAQLSESFNYHAAFCFLYMFVCLCPHAKNIKFSLKSTLPIGAGLGSSASISVSLALAMAYLGGLIGSNDLEKLSENDKHIVNQWAFIGEKCIHGTPSGIDNAVATYGNALLFEKDSHNGTINTNNFKFLDDFPAIPMILTYTRIPRSTKDLVARVRVLVTEKFPEVMKPILDAMGECALQGLEIMTKLSKCKGTDDEAVETNNELYEQLLELIRINHGLLVSIGVSHPGLELIKNLSDDLRIGSTKLTGAGGGGCSLTLLRRDITQEQIDSFNKKLQDDFSYETFETDLGGTGCCLLSAKNLNKDLKIKSLVFQLFENKTTTKQQIDDLLLPGNTNLPWTS
Feedback resistance (%) [1]: 65% | Specific activity (% of wild-type) [2]: 87 % of wild-type

B3: L106P, S218P: Saccharomyces cerevisiae mevalonate kinase mutant with substitutions L106P and S218P (protein, listed as Saccharomyces cerevisiae)
chain: MSLPFLTSAPGKVIIFGEHSAVYNKPAVAASVSALRTYLLISESSAPDTIELDFPDISFNHKWSINDFNAITEDQVNSQKLAKAQQATDGLSQELVSLLDPLLAQPSESFHYHAAFCFLYMFVCLCPHAKNIKFSLKSTLPIGAGLGSSASISVSLALAMAYLGGLIGSNDLEKLSENDKHIVNQWAFIGEKCIHGTPSGIDNAVATYGNALLFEKDPHNGTINTNNFKFLDDFPAIPMILTYTRIPRSTKDLVARVRVLVTEKFPEVMKPILDAMGECALQGLEIMTKLSKCKGTDDEAVETNNELYEQLLELIRINHGLLVSIGVSHPGLELIKNLSDDLRIGSTKLTGAGGGGCSLTLLRRDITQEQIDSFKKKLQDDFSYETFETDLGGTGCCLLSAKNLNKDLKIKSLVFQLFENKTTTKQQIDDLLLPGNTNLPWTS
Feedback resistance (%) [1]: 24% | Specific activity (% of wild-type) [2]: 42 % of wild-type

B4: I142N, L158S, L231I, T367S: Saccharomyces cerevisiae mevalonate kinase mutant with substitutions I142N, L158S, L231I and T367S (protein, listed as Saccharomyces cerevisiae)
chain: MSLPFLTSAPGKVIIFGEHSAVYNKPAVAASVSALRTYLLISESSAPDTIELDFPDISFNHKWSINDFNAITEDQVNSQKLAKAQQATDGLSQELVSLLDPLLAQLSESFHYHAAFCFLYMFVCLCPHAKNIKFSLKSTLPNGAGLGSSASISVSLASAMAYLGGLIGSNDLEKLSENDKHIVNQWAFIGEKCIHGTPSGIDNAVATYGNALLFEKDSHNGTINTNNFKFIDDFPAIPMILTYTRIPRSTKDLVARVRVLVTEKFPEVMKPILDAMGECALQGLEIMTKLSKCKGTDDEAVETNNELYEQLLELIRINHGLLVSIGVSHPGLELIKNLSDDLRIGSTKLTGAGGGGCSLTLLRRDISQEQIDSFKKKLQDDFSYETFETDLGGTGCCLLSAKNLNKDLKIKSLVFQLFENKTTTKQQIDDLLLPGNTNLPWTS
Feedback resistance (%) [1]: 58% | Specific activity (% of wild-type) [2]: 61 % of wild-type

B5: K83E, S249P: Saccharomyces cerevisiae mevalonate kinase mutant with substitutions K83E and S249P (protein, listed as Saccharomyces cerevisiae)
chain: MSLPFLTSAPGKVIIFGEHSAVYNKPAVAASVSALRTYLLISESSAPDTIELDFPDISFNHKWSINDFNAITEDQVNSQKLAEAQQATDGLSQELVSLLDPLLAQLSESFHYHAAFCFLYMFVCLCPHAKNIKFSLKSTLPIGAGLGSSASISVSLALAMAYLGGLIGSNDLEKLSENDKHIVNQWAFIGEKCIHGTPSGIDNAVATYGNALLFEKDSHNGTINTNNFKFLDDFPAIPMILTYTRIPRPTKDLVARVRVLVTEKFPEVMKPILDAMGECALQGLEIMTKLSKCKGTDDEAVETNNELYEQLLELIRINHGLLVSIGVSHPGLELIKNLSDDLRIGSTKLTGAGGGGCSLTLLRRDITQEQIDSFKKKLQDDFSYETFETDLGGTGCCLLSAKNLNKDLKIKSLVFQLFENKTTTKQQIDDLLLPGNTNLPWTS
Feedback resistance (%) [1]: 37% | Specific activity (% of wild-type) [2]: 78 % of wild-type

B6: P55L, C117S: Saccharomyces cerevisiae mevalonate kinase mutant with substitutions P55L and C117S (protein, listed as Saccharomyces cerevisiae)
chain: MSLPFLTSAPGKVIIFGEHSAVYNKPAVAASVSALRTYLLISESSAPDTIELDFLDISFNHKWSINDFNAITEDQVNSQKLAKAQQATDGLSQELVSLLDPLLAQLSESFHYHAAFSFLYMFVCLCPHAKNIKFSLKSTLPIGAGLGSSASISVSLALAMAYLGGLIGSNDLEKLSENDKHIVNQWAFIGEKCIHGTPSGIDNAVATYGNALLFEKDSHNGTINTNNFKFLDDFPAIPMILTYTRIPRSTKDLVARVRVLVTEKFPEVMKPILDAMGECALQGLEIMTKLSKCKGTDDEAVETNNELYEQLLELIRINHGLLVSIGVSHPGLELIKNLSDDLRIGSTKLTGAGGGGCSLTLLRRDITQEQIDSFKKKLQDDFSYETFETDLGGTGCCLLSAKNLNKDLKIKSLVFQLFENKTTTKQQIDDLLLPGNTNLPWTS
Feedback resistance (%) [1]: 58% | Specific activity (% of wild-type) [2]: 60 % of wild-type

B7: WT: non-mutated Saccharomyces cerevisiae mevalonate kinase containing a His6-tag (SEQ ID NO:3) (protein, listed as Saccharomyces cerevisiae)
chain: MRGSHHHHHHGSACSLPFLTSAPGKVIIFGEHSAVYNKPAVAASVSALRTYLLISESSAPDTIELDFPDISFNHKWSINDFNAITEDQVNSQKLAKAQQATDGLSQELVSLLDPLLAQLSESFHYHAAFCFLYMFVCLCPHAKNIKFSLKSTLPIGAGLGSSASISVSLALAMAYLGGLIGSNDLEKLSENDKHIVNQWAFIGEKCIHGTPSGIDNAVATYGNALLFEKDSHNGTINTNNFKFLDDFPAIPMILTYTRIPRSTKDLVARVRVLVTEKFPEVMKPILDAMGECALQGLEIMTKLSKCKGTDDEAVETNNELYEQLLELIRINHGLLVSIGVSHPGLELIKNLSDDLRIGSTKLTGAGGGGCSLTLLRRDITQEQIDSFKKKLQDDFSYETFETDLGGTGCCLLSAKNLNKDLKIKSLVFQLFENKTTTKQQIDDLLLPGNTNLPWTS
modifications: His6-tag
Feedback resistance (%) [1]: 0% | Specific activity (% of wild-type) [2]: 100 % of wild-type
